Results: patent US20240376170A1 (BRIGHT PEAK THERAPEUTICS, published 2024)
Bridges are numbered along the chain shown (N, C = ends). Primed or numbered codes have the meaning given here. Side-chain parts run from the residue outwards. [ ]: non-standard residue; d: D form. Ygp(4) = Tyr with amino-capped PEG8 (O-(8x polyethylene glycol-amino)-tyrosine); Yn3(4) = Tyr with azide-capped PEG9 (O-(9x polyethylene glycol-azido)-tyrosine); Ygp(8) = Tyr, amino-capped PEG8 (O-(8x polyethylene glycol-amino)-tyrosine); Yn3(8) = Tyr, azide-capped PEG9 (O-(9x polyethylene glycol-azido)-tyrosine); Ygp″ = O-(8x polyethylene glycol-amino)-tyrosine; Yn3″ = O-(9x polyethylene glycol-azido)-tyrosine; PEG9′ = 9x polyethylene glycol; hSer = N[C@@H](CCO)C(=O)O; Nle = CCCC[C@H](N)C(=O)O

T1: IL-2 receptor βγ complex (human, UniProt P14784 27-551; P31785 23-369)
T1 sequence (looked up) 1: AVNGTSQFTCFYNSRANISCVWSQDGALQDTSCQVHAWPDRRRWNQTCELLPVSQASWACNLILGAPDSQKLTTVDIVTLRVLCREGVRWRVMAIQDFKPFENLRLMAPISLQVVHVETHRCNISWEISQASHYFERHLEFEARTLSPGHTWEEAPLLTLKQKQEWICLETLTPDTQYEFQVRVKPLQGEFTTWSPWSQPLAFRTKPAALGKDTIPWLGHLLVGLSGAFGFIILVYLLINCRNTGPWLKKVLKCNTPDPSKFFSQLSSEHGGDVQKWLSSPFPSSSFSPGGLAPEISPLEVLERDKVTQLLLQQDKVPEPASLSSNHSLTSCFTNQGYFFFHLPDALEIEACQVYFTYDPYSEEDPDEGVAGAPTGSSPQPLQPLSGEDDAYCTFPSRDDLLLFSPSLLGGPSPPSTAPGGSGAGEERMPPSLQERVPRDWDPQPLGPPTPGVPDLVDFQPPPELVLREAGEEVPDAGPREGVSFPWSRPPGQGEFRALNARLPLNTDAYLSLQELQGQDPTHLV
T1 sequence (looked up) 2: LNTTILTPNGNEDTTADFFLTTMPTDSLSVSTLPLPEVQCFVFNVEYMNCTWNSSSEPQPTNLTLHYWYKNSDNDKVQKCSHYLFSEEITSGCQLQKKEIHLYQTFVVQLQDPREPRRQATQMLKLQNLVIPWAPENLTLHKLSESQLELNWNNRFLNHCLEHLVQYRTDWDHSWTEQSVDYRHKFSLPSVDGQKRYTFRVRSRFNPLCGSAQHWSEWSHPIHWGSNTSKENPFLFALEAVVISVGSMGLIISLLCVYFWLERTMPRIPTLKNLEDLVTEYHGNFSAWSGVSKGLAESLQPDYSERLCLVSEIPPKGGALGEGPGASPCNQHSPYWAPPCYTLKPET

T2: IL-2Rβγ on HEK-Blue IL-2Rβγ reporter cells (InvivoGen) (UniProt P14784 27-551; P31785 23-369, limits assumed)
T2 sequence (looked up) 1: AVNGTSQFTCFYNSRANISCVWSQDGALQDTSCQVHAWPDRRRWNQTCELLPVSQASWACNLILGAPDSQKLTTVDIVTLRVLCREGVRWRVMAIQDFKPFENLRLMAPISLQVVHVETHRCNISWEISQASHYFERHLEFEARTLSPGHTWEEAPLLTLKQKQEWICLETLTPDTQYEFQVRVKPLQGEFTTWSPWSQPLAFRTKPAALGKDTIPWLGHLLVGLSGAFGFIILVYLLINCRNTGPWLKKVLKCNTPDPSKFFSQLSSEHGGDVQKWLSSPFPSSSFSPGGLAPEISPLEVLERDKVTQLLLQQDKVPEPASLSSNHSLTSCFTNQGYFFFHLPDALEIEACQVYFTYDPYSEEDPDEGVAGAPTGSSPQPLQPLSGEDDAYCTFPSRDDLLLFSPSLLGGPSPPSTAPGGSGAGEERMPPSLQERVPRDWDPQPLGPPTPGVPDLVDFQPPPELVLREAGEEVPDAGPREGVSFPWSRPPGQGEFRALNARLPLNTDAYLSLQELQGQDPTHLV
T2 sequence (looked up) 2: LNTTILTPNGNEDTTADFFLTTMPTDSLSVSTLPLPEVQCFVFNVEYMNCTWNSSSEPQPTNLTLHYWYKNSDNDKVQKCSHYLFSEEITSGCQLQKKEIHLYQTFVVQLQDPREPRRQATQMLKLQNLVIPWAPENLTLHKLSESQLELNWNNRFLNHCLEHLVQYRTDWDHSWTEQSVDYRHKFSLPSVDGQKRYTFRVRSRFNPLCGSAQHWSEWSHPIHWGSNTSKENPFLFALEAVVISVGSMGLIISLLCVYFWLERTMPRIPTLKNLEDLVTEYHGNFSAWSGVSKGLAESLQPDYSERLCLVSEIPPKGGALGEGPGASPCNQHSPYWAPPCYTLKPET


These binders were tested against T1, IL-2 receptor βγ complex (assay: cell-based or functional assay).

| Binder | Average EC50, pSTAT5 Assay in NK cells |
| --- | --- |
| CMP-324 (ligand, not fully specified (residue 26); ends and bridges not checked; also: Glu26 side chain attached to another sequence (short peptide)) LVGAPTSSSTKKTQLQLEHLLLDLQEILNGINNYKNPKLTR[Nle]L[hSer][Yn3″]KF[Ygp″][Nle]PKKATELKHLQCLEEELKPLEEVL[hSer]LAQSKNFHLRPRDLISNINVIVLELKGSETTF[hSer]CEYADETATIVEFLNRWITFSQSIISTLT | 0.38 nM |
| CMP-325 (ligand, not fully specified; ends and bridges not checked) RVANLVGAPTSSSTKKTQLQLEHLLLDLQE([Arg-Gly-Arg])ILNGINNYKNPKLTR[Nle]L[hSer][Yn3″]KF[Ygp″][Nle]PKKATELKHLQCLEEELKPLEEVL[hSer]LAQSKNFHLRPRDLISNINVIVLELKGSETTF[hSer]CEYADETATIVEFLNRWITFSQSIISTLT | 0.18 nM |
| CMP-323 (ligand, not fully specified; ends and bridges not checked) LVGAPTSSSTKKTQLQLEHLLLDLQE([Arg-Gly-Arg])ILNGINNYKNPKLTR[Nle]L[hSer][Yn3″]KF[Ygp″][Nle]PKKATELKHLQCLEEELKPLEEVL[hSer]LAQSKNFHLRPRDLISNINVIVLELKGSETTF[hSer]CEYADETATIVEFLNRWITFSQSIISTLT | 0.13 nM |
| CMP-321, MMP2 cleaved molecule (ligand, lactam N-32; also: MMP2 cleaved, cleavage site and product not given here) SGRVQPLVDAPTSSSTKKTQLQLEHLLLDLQEILNGINNYKNPKLTR[Nle]L[hSer][Yn3(8)]KF[Ygp(8)][Nle]PKKATELKHLQCLEEELKPLEEVL[hSer]LAQSKNFHLRPRDLISNINVIVLELKGSETTF[hSer]CEYADETATIVEFLNRWITFSQSIISTLT | 2.94 nM |

Each binder was assayed against T2, IL-2Rβγ on HEK-Blue IL-2Rβγ reporter … (assay: cell-based or functional assay).

| Binder | Average EC50, HEK-Blue IL-2R (CD122+, CD132+) Reporter Assay, MMP2 cleaved molecule | Average EC50, HEK-Blue IL-2R (CD122+, CD132+) Reporter Assay, intact molecule |
| --- | --- | --- |
| CMP-303, MMP2 cleaved (ligand, ends and bridges not checked; also: MMP2 cleaved, ring opened, cut site and remnants not given here) PLGLAGAPTSSSTKKTQLQLEHLLLDLQEILNGINNYKNPKLTR[Nle]L[hSer][Yn3″]KF[Ygp″][Nle]PKKATELKHLQCLEEELKPLEEVL[hSer]LAQSKNFHLRPRDLISNINVIVLELKGSETTF[hSer]CEYADETATIVEFLNRWITFSQSIISTLT | 21.8 pM | – |
| CMP-315 (ligand, ends and bridges not checked; also: further groups not given here) APTSSSTKKTQLQLEHLLLDLQKILNGINNYKNPKLTR[Nle]L[hSer][Yn3(4)]KF[Ygp(4)][Nle]PKKATELKHLQCLEEELKPLEEVL[hSer]LAQSKNFHLRPRDLISNINVIVLELKGSETTF[hSer]CEYADETATIVEFLNRWITFSQSIISTLT | – | 55.4 pM |
| CMP-305 (ligand, bridge 15-23; not fully specified (bridges); ends not checked) APTSSSTKKTQLQLEHLLLDLQKILNGINNYKNPKLTR[Nle]L[hSer][Yn3(4)]KF[Ygp(4)][Nle]PKKATELKHLQCLEEELKPLEEVL[hSer]LAQSKNFHLRPRDLISNINVIVLELKGSETTF[hSer]CEYADETATIVEFLNRWITFSQSIISTLT | – | 497 pM |
| CMP-305, MMP2 cleaved (ligand, ends and bridges not checked; also: Glu15 and Lys23 side chains carried cleaved peptide linker, remnants after MMP2 cut not given here) APTSSSTKKTQLQLEHLLLDLQKILNGINNYKNPKLTR[Nle]L[hSer][Yn3(4)]KF[Ygp(4)][Nle]PKKATELKHLQCLEEELKPLEEVL[hSer]LAQSKNFHLRPRDLISNINVIVLELKGSETTF[hSer]CEYADETATIVEFLNRWITFSQSIISTLT | 18.5 pM | – |
| CMP-301, MMP2 cleaved (ligand, ends and bridges not checked; also: MMP2 cleaved, ring opened, cut site and remnants not given here) APTSSSTKKTQLQLEHLLLDLQEILNGINNYKNPKLTR[Nle]L[hSer][Yn3″]KF[Ygp″][Nle]PKKATELKHLQCLEEELKPLEEVL[hSer]LAQSKNFHLRPRDLISNINVIVLELKGSETTF[hSer]CEYADETATIVEFLNRWITFSQSIISTLT | 7.26 pM | – |
| CMP-301 (ligand, lactam N-31; ends not checked) GPLGLAG[PEG9′]APTSSSTKKTQLQLEHLLLDLQEILNGINNYKNPKLTR[Nle]L[hSer][Yn3″]KF[Ygp″][Nle]PKKATELKHLQCLEEELKPLEEVL[hSer]LAQSKNFHLRPRDLISNINVIVLELKGSETTF[hSer]CEYADETATIVEFLNRWITFSQSIISTLT | – | 591 pM |
| CMP-304 (ligand, bridge N-29; not fully specified (N-terminus, bridges); ends not checked) PLGLAGAPTSSSTKKTQLQLEHLLLDLQEILNGINNYKNPKLTR[Nle]L[hSer][Yn3(4)]KF[Ygp(4)][Nle]PKKATELKHLQCLEEELKPLEEVL[hSer]LAQSKNFHLRPRDLISNINVIVLELKGSETTF[hSer]CEYADETATIVEFLNRWITFSQSIISTLT | – | 340 pM |
| CMP-315, MMP2 cleaved (ligand, ends and bridges not checked; also: MMP2-cleaved, product after cut not given here, further groups not given here) APTSSSTKKTQLQLEHLLLDLQKILNGINNYKNPKLTR[Nle]L[hSer][Yn3(4)]KF[Ygp(4)][Nle]PKKATELKHLQCLEEELKPLEEVL[hSer]LAQSKNFHLRPRDLISNINVIVLELKGSETTF[hSer]CEYADETATIVEFLNRWITFSQSIISTLT | 41.8 pM | – |
| CMP-302 (ligand, lactam N-30; ends not checked) GPLGLAGAPTSSSTKKTQLQLEHLLLDLQEILNGINNYKNPKLTR[Nle]L[hSer][Yn3″]KF[Ygp″][Nle]PKKATELKHLQCLEEELKPLEEVL[hSer]LAQSKNFHLRPRDLISNINVIVLELKGSETTF[hSer]CEYADETATIVEFLNRWITFSQSIISTLT | – | 436 pM |
| CMP-302, MMP2 cleaved (ligand, ends and bridges not checked; also: MMP2 cleaved, ring opened, cut site and remnants not given here) GPLGLAGAPTSSSTKKTQLQLEHLLLDLQEILNGINNYKNPKLTR[Nle]L[hSer][Yn3″]KF[Ygp″][Nle]PKKATELKHLQCLEEELKPLEEVL[hSer]LAQSKNFHLRPRDLISNINVIVLELKGSETTF[hSer]CEYADETATIVEFLNRWITFSQSIISTLT | 6.46 pM | – |
| CMP-303 (ligand, bridge N-29; not fully specified (N-terminus, bridges); ends not checked) PLGLAGAPTSSSTKKTQLQLEHLLLDLQEILNGINNYKNPKLTR[Nle]L[hSer][Yn3″]KF[Ygp″][Nle]PKKATELKHLQCLEEELKPLEEVL[hSer]LAQSKNFHLRPRDLISNINVIVLELKGSETTF[hSer]CEYADETATIVEFLNRWITFSQSIISTLT | – | 521 pM |
| CMP-304, MMP2 cleaved (ligand, ends and bridges not checked; also: MMP2 cleaved, ring opened, cut site and remnants not given here) PLGLAGAPTSSSTKKTQLQLEHLLLDLQEILNGINNYKNPKLTR[Nle]L[hSer][Yn3(4)]KF[Ygp(4)][Nle]PKKATELKHLQCLEEELKPLEEVL[hSer]LAQSKNFHLRPRDLISNINVIVLELKGSETTF[hSer]CEYADETATIVEFLNRWITFSQSIISTLT | 21 pM | – |
